Assay [1] deals with T1, human CCR8 (human, UniProt P51685 1-355). The experiment in a line: cell-based or functional assay.
T1 sequence (P51685 whole entry, the tested form may be a part): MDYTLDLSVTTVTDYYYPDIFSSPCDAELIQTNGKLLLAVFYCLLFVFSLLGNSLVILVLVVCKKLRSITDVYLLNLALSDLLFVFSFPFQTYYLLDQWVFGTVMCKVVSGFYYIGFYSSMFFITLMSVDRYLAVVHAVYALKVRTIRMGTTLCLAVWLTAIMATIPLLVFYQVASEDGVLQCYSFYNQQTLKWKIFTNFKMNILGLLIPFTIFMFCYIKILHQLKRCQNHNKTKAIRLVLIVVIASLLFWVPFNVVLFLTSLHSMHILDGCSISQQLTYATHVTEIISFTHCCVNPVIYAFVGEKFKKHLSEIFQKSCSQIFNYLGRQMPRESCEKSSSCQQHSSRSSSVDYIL
Assay [2] concerns the target T1, human CCR8. Kind of assay: FACS, competition with AF647-human CCL1 on CHO-K1-human CCR8 cells. The procedure:
(§1) Antibodies were prepared with 3-fold serial dilution ranging from 200 nM to 0.01 nM in FACS buffer. Then, cells were washed by FACS buffer for three times after incubation. […] FlowJo software was used for analysis. Data was plotted as the logarithm of antibody concentration versus mean fluorescence signals. IC₅₀ values were determined in GraphPad Prism 8 (GraphPad Software) using a log(agonist) vs. response-Variable slope (4 parameters) curve fit.
A general note: A flow cytometer gives signals particle by particle.

For assay [3], the target named is T1, human CCR8. Kind of assay: FACS, competition with AF647-human CCL1 on HEK293-human CCR8 cells. The procedure: as §1
The target in assay [4] is T2, cynomolgus CCR8 (cynomolgus, UniProt G7NYJ2 1-355).
T2 construct: whole, on cells
Kind of assay: FACS on HEK293-cynomolgus CCR8 cells. The method, then: (§2) A total of 5×10⁴ cells for each well were seeded in 96-well plates and washed with FACS buffer (DPBD containing 1.5% FBS) for once. Antibodies were prepared with 3-fold serial dilution ranging from 100 nM to 0.0017 nM in FACS buffer. Cells were incubated with 50 μL of diluted antibodies at 4° C. for 1 hour. […] After primary antibody incubation, cells were washed for 3 times by FACS buffer. Then, cells were stained by Alexa Flu647 labeled anti-human IgG secondary antibody (Jackson ImmunoResearch, #109606170) or Alexa Flu647 labeled anti-mouse IgG secondary antibody (Jackson ImmunoResearch, #115605072) at 1:600 dilution in FACS buffer for 0.5 hour at 4° C. After washed for 3 times, Flow cytometry was performed to measure the binding.
T2 sequence (G7NYJ2 entry or part of it): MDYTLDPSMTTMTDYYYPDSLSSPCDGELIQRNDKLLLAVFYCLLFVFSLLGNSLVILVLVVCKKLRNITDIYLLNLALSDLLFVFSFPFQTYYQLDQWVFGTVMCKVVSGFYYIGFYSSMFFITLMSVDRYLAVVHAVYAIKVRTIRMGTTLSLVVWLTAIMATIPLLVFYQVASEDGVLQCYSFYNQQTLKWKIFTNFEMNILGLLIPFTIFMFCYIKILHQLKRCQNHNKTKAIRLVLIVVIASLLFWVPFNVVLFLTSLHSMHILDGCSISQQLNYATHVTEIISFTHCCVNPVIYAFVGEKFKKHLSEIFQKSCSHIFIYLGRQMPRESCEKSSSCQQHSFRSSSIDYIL

Assay [5] has as its target T1, human CCR8. The experiment in a line: FACS on HEK293-human CCR8 cells. The procedure: as §2
Assay [6] has as its target T1, human CCR8. Kind of assay: cell-based or functional assay. The source holds these as a separate data set.
For assay [7], the target named is T1, human CCR8. Kind of assay: FACS, competition with AF647-human CCL1 on CHO-K1-human CCR8 cells. This is another data set of the same source.
Assay [8] has as its target T1, human CCR8. The description is as above. The procedure:
Blocking curves were generated to rank the blocking activities of PTM sites removed antibodies. Briefly, a total of 5×10⁴ CHO-K1-human CCR8 cells for each well were seeded in 96-well plate. Cells were incubated by series diluted purified hybridoma antibodies and 4 nM AF647 labeled human CCL1 (Almac, #CAF-07) for 1 hour at 4° C. Antibodies were prepared with 3-fold serial dilution ranging from 100 nM to 0.0051 nM in FACS buffer. Then, cells were washed by FACS buffer for three times after incubation. […] FlowJo software was used for analysis. Data was plotted as the logarithm of antibody concentration versus mean fluorescence signals. IC₅₀ values were determined in GraphPad Prism 8 (GraphPad Software) using a log(agonist) vs. response-Variable slope (4 parameters) curve fit.
The source holds these as a separate data set.

The target of assay [9] is T1, human CCR8. Kind of assay: FACS on HEK293-human CCR8 cells. The method, then:
(§3) Binding affinities of NG site removed antibodies were determined on human CCR8 and cynomolgus CCR8 overexpression cells. Briefly, CFSE labeled HEK293-human CCR8 cells or CFSE labeled HEK293-cynomolgus CCR8 cells were mixed with HEK293 cells. The mixed ratio was 1:1. A total of 5×10⁴ mixed cells for each well were seeded in 96-well plates and washed by FACS buffer (DPBS containing 1% FBS) once. Cells were incubated by serial diluted purified hybridoma antibodies for 1 hour at 4° C. Antibodies were prepared with 3-fold serial dilution ranging from 100 nM to 0.0017 nM or from 25.3165 nM to 0.0004 nM in FACS buffer. […] After primary antibody incubation, cells were washed by FACS buffer for three times. Then, cells were stained with secondary antibody (Alexa Flu647-conj gated rabbit anti-mouse IgG, Jackson ImmunoResearch, #315606046) at 1:600 dilution in FACS buffer, incubated for 0.5 hour at 4° C. […] FlowJo software was used for analysis. Data was plotted as the logarithm of antibody concentration versus mean fluorescence signals. EC₅₀ values were calculated in GraphPad Prism 8 (GraphPad Software) using a log (agonist) vs. response-Variable slope (4 parameters) curve fit.
This is another data set of the same source.

The target in assay [10] is T2, cynomolgus CCR8. Kind of assay: FACS on HEK293-cynomolgus CCR8 cells. The procedure: as §3
The source holds these as a separate data set.

Assay [11] concerns the target T3, cynomolgus CCR8 (cynomolgus, UniProt G7NYJ2 1-355).
T3 construct: whole, on cells; also called HEK293-Cynomolgus CCR8; ExpiCHO-S cynomolgus CCR8
Kind of assay: FACS on HEK293-Cynomolgus CCR8 cells. The method, then: (§4) The binding affinities of purified antibodies were determined on human CCR8 and cynomolgus CCR8 over-expressing cells. Briefly, CFSE (Life technology, Cat #: C34554) labeled CHO-K1-human CCR8 cells mixed with CHO-K1 cells, CFSE labeled HEK293-human CCR8 cells mixed with H1EK293 cells, or CFSE labeled H1EK293-cynomolgus CCR8 cells mixed with HTEK293 cells were used in the assay. The mix ratio was 1:1. A total of 5×10⁴ mixed cells for each well were seeded in 96-well plate and washed by FACS buffer (DPBS containing 10% FBS) once. Cells were incubated by series diluted purified hybridoma antibodies for 1 hour at 4° C. Antibodies were prepared with 3-fold serial dilution ranging from 200 nM to 0.003 nM in FACS buffer. After primary antibody incubation, cells were washed by FACS buffer for three times. Then, cells were stained with secondary antibody (Alexa Flu647-conj gated rabbit anti-mouse IgG, Jackson ImmunoResearch, #315606046) at 1:600 dilution in FACS buffer and incubated for 0.5 hour at 4° C. […] FlowJo software was used for analysis. Data was plotted as the logarithm of antibody concentration versus mean fluorescence signals. EC₅₀ values were calculated in GraphPad Prism 8 (GraphPad Software) using a log(agonist) vs. response-Variable slope (4 parameters) curve fit. […] The EC₅₀s of the selected antibodies on human CCR8 are less than 5 nM except those of 262C2G7 and 234G9C12. The EC₅₀s of the selected antibodies on cynomolgus CCR8 are less than 1 nM except that of 348E2D11 (Table 8).
T3 sequence (G7NYJ2 entry or part of it): as above

Assay [12] deals with T4, human CCR8 (human, UniProt P51685 1-355).
T4 construct: whole, on cells; In the β-arrestin assay CCR8 is fused to the ProLink (PK) tag; also called hCCR8; CHO-K1-human CCR8
Kind of assay: FACS competition, hybridoma supernatant with 4 nM AF647-human CCL1 on human CCR8 cells.
T4 sequence (P51685 whole entry, the tested form may be a part): as the sequence (P51685 whole entry, the tested form may be a part) above

The target of assay [13] is T4, human CCR8. The experiment in a line: FACS on HEK293-human CCR8 cells. The method, then:
as §4

Assay [14] has as its target T4, human CCR8. The experiment in a line: FACS on CHO-K1-human CCR8 cells. The method, then: as §4
In assay [15] the target is T3, cynomolgus CCR8. Kind of assay: FACS, hybridoma supernatant on cynomolgus CCR8 cells. The procedure: (§5) Binding of hybridoma supernatant on CHO-K1-human CCR8 and ExpiCHO-S cynomolgus CCR8 cells. A total of 660 96-well plates were seeded and screened by FACS binding from the hybridoma derived from immunized animals.
(§6) To obtain antibodies cross-reactive to human and cynomolgus CCR8, hybridomas from mice immunized with human and cynomolgus CCR8 DNAs were screened by FACS. Briefly, 50 μL ExpiCHO-S cells transfected with human CCR8 or cynomolgus CCR8 (cell density: 2×10⁶ cells/mL, viability>90%) were incubated with equal volume hybridoma supernatant in 96 well plate (Corning) at 4° C. for 1 hour. […] Finally, the mixture was washed and resuspended with FACS buffer, and subjected to FACS analysis on BD FACS Celesta.

In assay [16] the target is T4, human CCR8. The experiment in a line: FACS, hybridoma supernatant on CHO-K1-human CCR8 cells. The method, then:
as §5, §6

Positions count from the first letter of the chain named.

B1: 204A2G12 (antibody, V domains shown)
VH: DVQLQESGPGLVKPSQSLSLTCSVTGYSITSGYYWNWIRQFPGNKLEWMGYISYDGTNNYNPSLKNRISITRDTSKNQFFLKLTSVTTEDTATYYCARQVGLRRAWFAYWGQGTLVTVSA
VL: DIQMTQSSSFLSVSLGGRVTITCKASDHINYWLAWYQQKPGNAPRLLISGATSLETGVPSRFSGSGSGKDYTLTITSLQNEDVATYYCHQYWSTPTFGSGTKLEIK
notes: purified murine hybridoma antibody
For the molecule B1, in assay [1], the “IC50, inhibition of CCL1 induced β-Arrestin recruitment” value (“IC50, inhibition” below) amounted to 1.7 nM and the “Max Inhibition (%), CCL1 induced β-Arrestin recruitment” value turned out to be 30.9%. Also, in [2], the IC50 (in general, the concentration needed to halve the response being measured) was determined as 2.73 nM and the “Max Inhibition (%)” value was found to be 95%. For the same molecule, in assay [3], the IC50 amounted to 1.64 nM and the “Max Inhibition (%)” value is 87.6%.

B2: Hu149-4 (antibody, human IgG1, V domains shown)
VH: EVQLVESGGGLVQPGGSLKLSCAASGFTFNTYAMNWVRQASGKGLEWVGRIRSKSNFYATYYAASVKGRFTISRDDSKNTAYLQMNSLKTEDTAVYYCTRGRDYGSSYAMDYWGQGTLVTVSS
VL: DIVMTQSPLSLPVTPGEPASISCRSSKSLLHSNANTYLYWFLQKPGQSPQLLIYRMSNLASGVPDRFSGSGSGTDFTLKISRVEAEDVGVYYCMQHLEYPLTFGGGTKVELK
notes: humanized, human IgG1; also called Hu149-4 HuIgG1
As for B2, in [4], the EC50 (in general, the concentration at which the effect is half-maximal) came out at 0.081 nM and the “Max MFI” value was determined as 26500 MFI. In addition, in [5], the midpoint of the response, the EC50, lay at 0.0518 nM and the “Max MFI” value is 7470 MFI. For the same molecule, in assay [6], the “EC50, ADCC with human PBMC” value is 0.002 nM and the “Max specific lysis (%), ADCC with human PBMC” value worked out at 8.76%. Besides, in assay [7], the half-inhibitory concentration (IC50) worked out at 0.137 nM and the “Max Inhibition (%)” value was determined as 99.5%.

B3: 149F2C10 (antibody, V domains shown)
VH: EVQLVESGGGLVQPKGSLKLSCAASGFTFNTYAMNWVRQAPGKGLEWVARIRSKSNFYATYYADSVKDRFTISRDDSQDMLYLQMNILKTEDTAIYYCVRGRDYGSSYAMDYWGQGTSVTVSS
VL: DIVMTQAAPSVPVTPGESVSISCRSSKSLLHSNGNTYLYWFLQRPGQSPQLLIYRMSNLASGVPDRFSGSGSGTAFTLRISRVEAEDVGVYYCMQHLEYPLTFGAGTKLELK
notes: as for B1
Regarding B3, the “IC50, inhibition” value in assay [1] worked out at 0.61 nM. Besides, the “Max Inhibition (%), CCL1 induced β-Arrestin recruitment” value in assay [1] is 32%. For the same molecule, the values for the IC50 in [2], in assay [8] and in [3] were 0.917 nM, 0.97 nM and 0.733 nM, respectively. The “Max Inhibition (%)” value in assay [2] came to 98%; in [8], 79.4%; in assay [3], 96.4%. Also, the 50% effective concentration (EC50) in [9] was found to be 0.173 nM; in [10] it was 0.145 nM. In addition, the entries for the “Max MFI” value in assay [9] and in assay [10] were 1930 MFI and 3440 MFI, respectively.

B4: 153D4G2 (antibody, V domains shown)
VH: B3 VH
VL: B3 VL
notes: Murine hybridoma antibody; also called 153D3G2; 1531D4G2
As to B4, the concentration for a half-maximal effect (EC50) in assay [11] was determined as 0.699 nM; in [13], 0.24 nM; in assay [14], 0.64 nM. The “Max MFI” value in [11] was 10700 MFI; in [13] it was 11600 MFI; in [14] it was 51400 MFI. In assay [12], the “Inhibition Rate (%)” value came out at 99.1%. The “Binding Ratio (GFP + MFI)/(GFP - MFI)” value in assay [15] is 127; in assay [16], 215.

B5: 153D4G2 (antibody, V domains shown)
VH: B3 VH
VL: B3 VL
notes: as for B1
As to B5, in assay [1], the “IC50, inhibition” value turned out to be 6.57 nM and the “Max Inhibition (%), CCL1 induced β-Arrestin recruitment” value worked out at 33.8%. Besides, in assay [2], the IC50 amounted to 0.661 nM and the “Max Inhibition (%)” value turned out to be 98.2%. In assay [3], the concentration for half-maximal inhibition (IC50) worked out at 0.836 nM and the “Max Inhibition (%)” value was determined as 96.2%.

B6: 164G10D6 (antibody, V domains shown)
VH: B3 VH
VL: B3 VL
notes: as for B1
Take B6: in [1], the “IC50, inhibition” value is 0.46 nM and the “Max Inhibition (%), CCL1 induced β-Arrestin recruitment” value amounted to 42%. For the same molecule, in [2], the IC50 stood at 0.602 nM and the “Max Inhibition (%)” value came out at 97.9%. Also, in assay [3], the half-inhibitory concentration (IC50) worked out at 0.599 nM and the “Max Inhibition (%)” value was found to be 96.6%.

B7: 160D1E3 (antibody, V domains shown)
VH: B3 VH with F57Y, I87N
VL: B3 VL
notes: as for B1
Turning to B7, in assay [1], the “IC50, inhibition” value was 1.04 nM and the “Max Inhibition (%), CCL1 induced β-Arrestin recruitment” value was determined as 41.3%. Moreover, in assay [2], the IC50 turned out to be 0.728 nM and the “Max Inhibition (%)” value was determined as 98%. Further, in assay [3], the IC50 is 0.891 nM and the “Max Inhibition (%)” value stood at 100%.
